In the supplement of paper PMC10065799, “High-throughput profiling of sequence recognition by tyrosine kinases and SH2 domains using bacterial peptide display” (eLife, 2023):

Columns and labels:
[1] = target: FGFR1 (UniProt P11362); assay: phosphorylation enrichment, bacterial display (enrichment ratio); higher = better substrate or ligand; peptides without Tyr show the background
[2] = target: Jak2 (UniProt O60674); assay: as above
[3] = target: MERTK (UniProt Q12866); assay: as above
[4] = tested on: AncSZ; assay: as above
[5] = tested on: c-Src; assay: as above
[6] = target: FGFR3 (UniProt P22607); assay: as above
[7] = target: Hck (UniProt P08631); assay: as above
[8] = tested on: c-Abl (mouse); assay: as above
[9] = tested on: Fer (mouse); assay: as above
[10] = target: EPHB1 (UniProt P54762); assay: as above
[11] = target: Fes (UniProt P07332); assay: as above
[12] = target: EPHB2 (UniProt P29323); assay: as above
[13] = target: Fyn (UniProt P06241); assay: as above
[14] = target: c-Src SH2; assay: SH2 binding enrichment of the phosphorylated peptide, bacterial display (enrichment ratio); higher = better substrate or ligand; peptides without Tyr show the background
[15] = target: Grb2 SH2 (UniProt P62993); assay: as above
[16] = target: SHP2-C SH2; assay: as above
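For SH2 binding enrichment of the phosphorylated peptide, bacterial display in this document: peptide library displayed on the E. coli surface as eCPX fusions, selected cells deep-sequenced, score is each peptide's frequency after selection divided by its frequency in the input.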
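For phosphorylation enrichment, bacterial display in this document: 11-residue human phosphosite peptides and single-mutation variants displayed on the E. coli surface, counted by deep sequencing, each peptide's frequency after selection divided by its frequency in the unselected input library; frequency after pTyr selection over input frequency; kinase dosed for 20-30% of maximal phosphorylation in three min.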

EPHB2, sequence (P29323 whole entry, looked up): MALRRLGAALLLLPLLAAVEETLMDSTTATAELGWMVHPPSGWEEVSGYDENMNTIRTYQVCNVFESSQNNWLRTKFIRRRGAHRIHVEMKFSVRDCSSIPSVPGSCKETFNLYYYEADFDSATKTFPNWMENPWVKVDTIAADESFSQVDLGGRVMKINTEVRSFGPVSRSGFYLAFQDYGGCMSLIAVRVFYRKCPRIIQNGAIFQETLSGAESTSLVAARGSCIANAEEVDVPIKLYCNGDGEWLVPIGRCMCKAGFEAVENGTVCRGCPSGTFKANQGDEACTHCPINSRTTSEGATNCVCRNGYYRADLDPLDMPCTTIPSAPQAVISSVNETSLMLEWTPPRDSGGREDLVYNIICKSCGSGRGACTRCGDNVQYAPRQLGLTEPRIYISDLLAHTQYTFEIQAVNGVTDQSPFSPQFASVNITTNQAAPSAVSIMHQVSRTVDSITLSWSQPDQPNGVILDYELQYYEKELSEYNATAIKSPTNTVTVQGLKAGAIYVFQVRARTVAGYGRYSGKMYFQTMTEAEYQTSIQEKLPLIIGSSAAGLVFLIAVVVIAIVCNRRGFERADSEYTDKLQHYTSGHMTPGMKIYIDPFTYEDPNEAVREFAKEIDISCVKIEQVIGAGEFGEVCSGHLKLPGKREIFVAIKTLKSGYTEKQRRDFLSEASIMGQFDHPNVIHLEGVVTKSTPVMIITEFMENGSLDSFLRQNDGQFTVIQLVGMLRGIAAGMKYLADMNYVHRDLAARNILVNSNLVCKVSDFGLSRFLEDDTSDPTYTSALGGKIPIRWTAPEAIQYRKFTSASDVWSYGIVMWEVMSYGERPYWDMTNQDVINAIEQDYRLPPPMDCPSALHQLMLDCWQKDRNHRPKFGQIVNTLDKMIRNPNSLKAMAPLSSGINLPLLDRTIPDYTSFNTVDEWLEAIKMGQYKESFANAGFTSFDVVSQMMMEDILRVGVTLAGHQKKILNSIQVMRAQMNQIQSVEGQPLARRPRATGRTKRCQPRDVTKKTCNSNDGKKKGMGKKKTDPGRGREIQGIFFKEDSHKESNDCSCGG
Fyn, sequence (P06241 whole entry, looked up): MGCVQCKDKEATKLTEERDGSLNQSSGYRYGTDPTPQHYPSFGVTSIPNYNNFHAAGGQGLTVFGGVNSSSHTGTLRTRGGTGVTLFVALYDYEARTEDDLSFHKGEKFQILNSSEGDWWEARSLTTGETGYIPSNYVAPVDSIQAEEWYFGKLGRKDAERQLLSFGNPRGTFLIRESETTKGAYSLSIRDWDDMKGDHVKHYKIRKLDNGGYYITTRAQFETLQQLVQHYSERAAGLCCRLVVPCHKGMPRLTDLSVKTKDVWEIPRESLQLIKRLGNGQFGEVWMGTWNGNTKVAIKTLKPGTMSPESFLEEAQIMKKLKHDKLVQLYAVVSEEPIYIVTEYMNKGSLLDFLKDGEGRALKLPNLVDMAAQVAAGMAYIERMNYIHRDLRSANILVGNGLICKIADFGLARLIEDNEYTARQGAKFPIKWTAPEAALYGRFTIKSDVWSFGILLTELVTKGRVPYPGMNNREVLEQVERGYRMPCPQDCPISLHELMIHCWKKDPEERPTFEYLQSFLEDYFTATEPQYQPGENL
FGFR1, sequence (P11362 whole entry, looked up): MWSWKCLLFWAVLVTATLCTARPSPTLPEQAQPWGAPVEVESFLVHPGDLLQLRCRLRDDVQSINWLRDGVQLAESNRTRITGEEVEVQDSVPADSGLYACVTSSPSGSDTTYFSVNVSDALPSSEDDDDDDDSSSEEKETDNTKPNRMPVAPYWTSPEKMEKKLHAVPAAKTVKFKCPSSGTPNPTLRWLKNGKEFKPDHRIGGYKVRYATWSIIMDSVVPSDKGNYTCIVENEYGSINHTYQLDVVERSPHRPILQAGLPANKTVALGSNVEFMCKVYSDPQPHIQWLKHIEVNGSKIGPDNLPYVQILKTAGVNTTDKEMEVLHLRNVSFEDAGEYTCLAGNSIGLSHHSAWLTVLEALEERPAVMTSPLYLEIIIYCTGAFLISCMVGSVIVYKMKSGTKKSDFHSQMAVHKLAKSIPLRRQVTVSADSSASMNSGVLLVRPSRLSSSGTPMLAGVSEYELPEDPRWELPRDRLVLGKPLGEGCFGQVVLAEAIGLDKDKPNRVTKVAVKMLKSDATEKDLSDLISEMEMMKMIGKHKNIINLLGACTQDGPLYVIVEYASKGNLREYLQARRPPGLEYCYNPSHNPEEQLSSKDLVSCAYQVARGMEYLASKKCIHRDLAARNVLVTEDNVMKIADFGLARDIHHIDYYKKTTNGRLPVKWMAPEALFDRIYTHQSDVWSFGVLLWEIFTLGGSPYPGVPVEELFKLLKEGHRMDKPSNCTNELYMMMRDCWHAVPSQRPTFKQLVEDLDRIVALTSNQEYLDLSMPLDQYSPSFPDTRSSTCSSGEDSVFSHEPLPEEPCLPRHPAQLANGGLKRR
EPHB1, sequence (P54762 whole entry, looked up): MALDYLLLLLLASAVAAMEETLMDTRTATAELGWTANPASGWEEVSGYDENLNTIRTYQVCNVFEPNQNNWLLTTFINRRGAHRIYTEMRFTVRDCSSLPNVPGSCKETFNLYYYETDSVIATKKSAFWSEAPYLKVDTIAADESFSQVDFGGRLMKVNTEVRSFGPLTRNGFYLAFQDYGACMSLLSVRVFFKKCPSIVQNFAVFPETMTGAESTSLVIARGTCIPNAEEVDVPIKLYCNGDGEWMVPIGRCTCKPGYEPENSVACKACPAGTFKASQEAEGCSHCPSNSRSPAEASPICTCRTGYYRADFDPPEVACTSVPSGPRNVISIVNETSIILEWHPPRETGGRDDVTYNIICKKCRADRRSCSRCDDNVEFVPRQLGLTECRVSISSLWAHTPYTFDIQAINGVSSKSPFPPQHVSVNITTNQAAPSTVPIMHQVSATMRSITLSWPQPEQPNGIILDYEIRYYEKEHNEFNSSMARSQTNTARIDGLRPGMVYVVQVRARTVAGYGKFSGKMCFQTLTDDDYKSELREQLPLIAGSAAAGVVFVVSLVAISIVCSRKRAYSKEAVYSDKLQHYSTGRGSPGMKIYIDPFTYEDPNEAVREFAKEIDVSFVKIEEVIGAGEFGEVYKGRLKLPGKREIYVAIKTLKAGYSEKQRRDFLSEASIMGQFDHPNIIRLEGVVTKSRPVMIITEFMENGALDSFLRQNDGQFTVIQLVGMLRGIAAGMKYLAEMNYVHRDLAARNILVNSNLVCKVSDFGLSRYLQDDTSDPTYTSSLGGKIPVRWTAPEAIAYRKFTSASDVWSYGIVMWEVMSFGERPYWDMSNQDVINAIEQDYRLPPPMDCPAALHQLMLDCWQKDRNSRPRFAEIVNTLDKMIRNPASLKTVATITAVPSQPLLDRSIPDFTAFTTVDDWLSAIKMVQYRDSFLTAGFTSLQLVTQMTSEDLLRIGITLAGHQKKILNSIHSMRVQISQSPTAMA
Fes, sequence (P07332 whole entry, looked up): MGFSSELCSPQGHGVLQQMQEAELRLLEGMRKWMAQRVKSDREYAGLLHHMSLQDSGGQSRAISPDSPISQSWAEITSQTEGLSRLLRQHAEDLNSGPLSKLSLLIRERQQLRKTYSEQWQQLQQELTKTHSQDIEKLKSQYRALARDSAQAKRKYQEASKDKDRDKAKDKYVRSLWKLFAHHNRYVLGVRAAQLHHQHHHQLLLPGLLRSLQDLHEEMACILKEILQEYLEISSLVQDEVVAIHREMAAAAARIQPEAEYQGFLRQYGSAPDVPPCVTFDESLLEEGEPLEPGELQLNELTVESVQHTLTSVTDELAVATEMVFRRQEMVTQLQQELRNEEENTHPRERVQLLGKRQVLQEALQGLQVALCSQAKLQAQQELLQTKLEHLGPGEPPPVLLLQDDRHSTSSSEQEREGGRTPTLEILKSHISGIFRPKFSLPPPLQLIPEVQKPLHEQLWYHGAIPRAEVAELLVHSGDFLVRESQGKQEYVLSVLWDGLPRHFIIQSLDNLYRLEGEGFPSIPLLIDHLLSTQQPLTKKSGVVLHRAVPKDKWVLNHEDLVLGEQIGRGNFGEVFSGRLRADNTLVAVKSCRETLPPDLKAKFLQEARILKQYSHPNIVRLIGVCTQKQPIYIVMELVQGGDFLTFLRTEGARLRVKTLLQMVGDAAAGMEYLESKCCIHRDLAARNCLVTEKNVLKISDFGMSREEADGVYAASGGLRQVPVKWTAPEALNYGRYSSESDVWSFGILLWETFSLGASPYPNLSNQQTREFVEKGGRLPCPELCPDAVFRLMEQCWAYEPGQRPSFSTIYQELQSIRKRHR
FGFR3, sequence (P22607 whole entry, looked up): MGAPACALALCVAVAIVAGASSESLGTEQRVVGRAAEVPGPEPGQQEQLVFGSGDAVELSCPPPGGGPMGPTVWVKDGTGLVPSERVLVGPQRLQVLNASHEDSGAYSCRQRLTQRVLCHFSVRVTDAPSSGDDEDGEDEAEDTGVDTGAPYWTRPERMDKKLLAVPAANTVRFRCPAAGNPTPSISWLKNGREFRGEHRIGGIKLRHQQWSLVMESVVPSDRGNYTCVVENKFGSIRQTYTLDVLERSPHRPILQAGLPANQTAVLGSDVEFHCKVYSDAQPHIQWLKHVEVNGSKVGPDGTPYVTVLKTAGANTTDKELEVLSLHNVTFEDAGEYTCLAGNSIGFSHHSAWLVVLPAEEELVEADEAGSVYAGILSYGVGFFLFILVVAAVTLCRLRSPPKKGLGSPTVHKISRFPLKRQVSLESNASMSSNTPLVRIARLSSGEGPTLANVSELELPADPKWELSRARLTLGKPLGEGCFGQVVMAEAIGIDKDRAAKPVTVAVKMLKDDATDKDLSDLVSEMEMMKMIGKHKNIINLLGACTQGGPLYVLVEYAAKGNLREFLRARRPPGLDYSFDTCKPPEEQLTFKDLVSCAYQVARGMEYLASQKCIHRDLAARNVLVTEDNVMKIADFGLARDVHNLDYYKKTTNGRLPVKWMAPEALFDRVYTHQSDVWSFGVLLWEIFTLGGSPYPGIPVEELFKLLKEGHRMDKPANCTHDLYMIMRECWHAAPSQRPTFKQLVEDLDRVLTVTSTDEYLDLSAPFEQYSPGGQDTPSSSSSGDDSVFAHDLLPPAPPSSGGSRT

Row | SH2 binding enrichment [14] | SH2 binding enrichment [15] | SH2 binding enrichment [16] | Sequence | phosphorylation enrichment [1] | phosphorylation enrichment [2] | phosphorylation enrichment [3] | phosphorylation enrichment [4] | phosphorylation enrichment [5] | phosphorylation enrichment [6] | phosphorylation enrichment [7] | phosphorylation enrichment [8] | phosphorylation enrichment [9] | phosphorylation enrichment [10] | phosphorylation enrichment [11] | phosphorylation enrichment [12] | phosphorylation enrichment [13]
1 | 0.617 | 0.693 | 0.37 | LDFNEYFRNLN [HPRT1_Y198_D201N_YF] | 1.2 | 3.21 | 1.02 | 2.42 | 0.585 | 1.6 | 0.979 | 1.24 | 1.35 | 0.988 | 2.65 | 1.13 | 1
2 | 0.46 | 0.941 | 0.71 | SHNELYFEEAE [VANGL1_Y344_YF] | 0.68 | 1.23 | 0.556 | 1.09 | 0.492 | 1.02 | 0.633 | 0.671 | 0.693 | 0.568 | 1.21 | 0.619 | 0.67
3 | 0.521 | 0.843 | 0.92 | KSLFHHRQFSA [CPS1_Y1491_Y1491H_YF] | 0.353 | 0.407 | 0.36 | 0.448 | 0.279 | 0.373 | 0.297 | 0.431 | 0.297 | 0.418 | 0.543 | 0.295 | 0.403
4 | 0.38 | 0.777 | 0.588 | DDEVFYSPLSL [OTC_Y317_R320L] | 3.14 | 1.28 | 5.35 | 2 | 5.55 | 2.76 | 7.22 | 2.96 | 11.1 | 0.495 | 1.2 | 0.598 | 5.08
5 | 0.456 | 0.795 | 0.66 | LLTKVYVVEGS [ZMPSTE24_Y253_P248L] | 0.9 | 1.23 | 0.668 | 1.65 | 0.657 | 1.23 | 0.795 | 0.773 | 0.819 | 0.816 | 2 | 0.994 | 0.586
6 | 0.442 | 0.709 | 0.676 | LTQRTYMSENN [GPAA1_Y49_A54N] | 1.13 | 0.67 | 0.87 | 1.11 | 0.549 | 1.09 | 0.703 | 1.01 | 0.867 | 0.783 | 1.46 | 0.879 | 0.479
7 | 0.537 | 0.87 | 0.717 | KTAFSYTSSST [SIM1_Y356_P352T] | 0.426 | 0.497 | 0.44 | 0.665 | 0.432 | 0.475 | 0.353 | 0.456 | 0.399 | 0.329 | 0.721 | 0.482 | 0.41
8 | 0.515 | 0.796 | 0.97 | YLAATYPTVGQ [NF1_Y2508] | 0.582 | 1.08 | 0.73 | 0.677 | 0.407 | 0.51 | 0.454 | 0.518 | 0.357 | 0.357 | 0.753 | 0.472 | 0.455
9 | 2.81 | 0.775 | 0.791 | HGAGHYEDTIL [ALK_Y1604_P1599H] | 0.787 | 1 | 0.682 | 1.26 | 0.752 | 0.978 | 0.724 | 0.958 | 4.64 | 0.829 | 1.17 | 0.652 | 0.734
10 | 0.466 | 0.701 | 0.556 | ADDSFYTVRSA [ZAP70_Y493_A495V_YF] | 0.444 | 0.829 | 0.552 | 0.884 | 1.53 | 0.748 | 1.22 | 0.734 | 0.489 | 0.439 | 0.999 | 0.478 | 1.21
11 | 1.54 | 0.85 | 7.09 | TYACSYTPVKA [FLNB_Y708] | 0.877 | 1.24 | 3.02 | 0.991 | 2.4 | 0.627 | 1.32 | 1.78 | 0.78 | 0.567 | 1.06 | 0.868 | 1.25
12 | 0.676 | 0.903 | 0.773 | KTEMLYHLTAR [XRCC2_Y59] | 0.821 | 0.928 | 2.06 | 1.09 | 0.965 | 0.858 | 0.977 | 0.897 | 0.419 | 0.53 | 0.982 | 0.541 | 0.73
13 | 0.615 | 0.685 | 0.679 | AFPVSYSSPGA [RET_Y687_S690P] | 0.423 | 0.508 | 0.512 | 0.704 | 0.475 | 0.466 | 0.422 | 0.572 | 0.468 | 0.442 | 0.616 | 0.478 | 0.518
14 | 0.364 | 0.676 | 0.708 | LSSEMYVKSFT [F5_Y2149_YF] | 1.15 | 0.965 | 0.641 | 1.35 | 0.307 | 0.975 | 0.933 | 0.684 | 0.837 | 0.609 | 1.27 | 0.788 | 0.647
15 | 3.54 | 0.95 | 0.829 | LGQGKYSEVFE [CSNK2A1_Y50_R47Q] | 0.51 | 0.857 | 0.535 | 1.05 | 0.574 | 0.591 | 0.477 | 0.709 | 0.455 | 0.508 | 1 | 0.552 | 0.489
16 | 0.966 | 0.878 | 1.57 | RYLYYYSYLLK [PTEN_Y178_V175L] | 3.1 | 3.29 | 5.64 | 1.93 | 1.76 | 2.91 | 1.65 | 2.23 | 0.676 | 3.51 | 1.7 | 1.94 | 0.58

Row | SH2 binding enrichment [14] | SH2 binding enrichment [15] | SH2 binding enrichment [16] | Sequence | phosphorylation enrichment [1] | phosphorylation enrichment [2] | phosphorylation enrichment [3] | phosphorylation enrichment [4] | phosphorylation enrichment [5] | phosphorylation enrichment [6] | phosphorylation enrichment [7] | phosphorylation enrichment [8] | phosphorylation enrichment [9] | phosphorylation enrichment [10] | phosphorylation enrichment [11] | phosphorylation enrichment [12] | phosphorylation enrichment [13]
17 | 0.655 | 0.889 | 0.554 | DELDKYSEALK [TPM1_Y60] | 0.451 | 0.977 | 0.395 | 1.19 | 0.422 | 0.59 | 0.489 | 0.676 | 0.472 | 0.469 | 1.03 | 0.577 | 0.443
18 | 3.74 | 9.58 | 1.87 | EYQLPYYNMVP [BMPR1A_Y457] | 14.1 | 9.58 | 7.06 | 6.15 | 5.13 | 11.9 | 3.23 | 3 | 5.56 | 2.81 | 1.12 | 3.64 | 3.83
19 | 0.395 | 0.607 | 0.51 | ALTRSYIRERV [CYP2C8_Y243_K247R] | 0.421 | 0.58 | 0.391 | 0.768 | 0.451 | 0.423 | 0.493 | 0.458 | 0.373 | 0.373 | 0.536 | 0.457 | 0.334
20 | 0.448 | 0.981 | 0.964 | RSSPTYRDCLQ [LARGE2_Y682] | 0.523 | 0.667 | 0.42 | 1.45 | 0.369 | 0.522 | 0.385 | 0.539 | 0.458 | 0.556 | 0.858 | 0.472 | 0.469
21 | 1.6 | 1.99 | 1.77 | FRNKPYISWPS [CDC42BPB_Y1638_S1633Y_YF] | 0.408 | 0.424 | 0.417 | 0.457 | 0.445 | 0.427 | 0.414 | 0.36 | 0.366 | 0.255 | 0.552 | 0.33 | 0.345
22 | 0.77 | 1.09 | 0.628 | FGSRLYKYAFK [FANCD2_Y458_L456R] | 0.344 | 0.488 | 0.342 | 0.593 | 0.318 | 0.407 | 0.399 | 0.5 | 0.473 | 0.363 | 0.715 | 0.429 | 0.341
23 | 3.08 | 0.962 | 0.856 | SVVVPYEQPEV [TP53_Y220_P222Q] | 0.604 | 1.24 | 0.544 | 1.37 | 0.69 | 0.774 | 0.612 | 1.03 | 0.568 | 0.652 | 1.28 | 0.715 | 0.532
24 | 0.662 | 0.89 | 0.693 | GTPVMYTFDEF [COL10A1_Y623_YF] | 0.504 | 1.16 | 1.03 | 1.03 | 0.668 | 0.806 | 0.474 | 0.767 | 0.473 | 0.621 | 1.16 | 0.611 | 0.733
25 | 1.42 | 1.53 | 1.3 | PSQRPYVFFFS [PTEN_Y174_R173P_YF] | 2.12 | 1.21 | 0.755 | 1.27 | 0.973 | 1.14 | 0.439 | 1.25 | 0.693 | 0.726 | 1.51 | 0.559 | 0.605
26 | 0.488 | 0.828 | 0.67 | MSPPGYKLLTG [GJA1_Y286_V289L] | 0.515 | 0.669 | 0.465 | 0.625 | 0.503 | 0.599 | 0.405 | 0.731 | 0.474 | 0.542 | 0.756 | 0.891 | 0.454
27 | 0.487 | 0.852 | 0.535 | SAGSSYSISGI [PAX5_Y179] | 0.395 | 0.559 | 0.426 | 0.53 | 0.457 | 0.438 | 0.386 | 0.417 | 0.419 | 0.368 | 0.516 | 0.347 | 0.412
28 | 0.475 | 0.56 | 0.572 | AIFRRYSKFFD [SH3PXD2B_Y45_YF] | 0.598 | 1.04 | 0.572 | 1.03 | 0.626 | 0.587 | 0.54 | 0.773 | 0.408 | 0.526 | 1.13 | 0.565 | 0.582
29 | 0.538 | 0.863 | 0.739 | RGNKEYEEEKR [LENG1_Y96] | 0.407 | 0.822 | 0.314 | 0.723 | 0.323 | 0.686 | 0.737 | 0.458 | 0.394 | 0.519 | 0.756 | 0.493 | 0.534
30 | 0.709 | 0.659 | 0.764 | PVQAAYQKLVA [HBB_Y131_V134L] | 0.447 | 1.55 | 0.577 | 0.735 | 0.499 | 0.698 | 0.558 | 0.518 | 0.768 | 0.458 | 0.796 | 0.494 | 0.582
31 | 0.481 | 0.882 | 0.924 | GKVADYIPQLA [GLS_Y249] | 0.478 | 0.5 | 0.396 | 0.634 | 0.349 | 0.538 | 0.408 | 0.483 | 0.453 | 0.51 | 0.684 | 0.477 | 0.514
32 | 0.489 | 0.856 | 0.673 | KRIKLYNQEND [RPGRIP1L_Y448] | 0.412 | 0.502 | 0.439 | 0.643 | 0.353 | 0.459 | 0.379 | 0.612 | 0.388 | 0.306 | 0.681 | 0.387 | 0.377

Row | Sequence | SH2 binding enrichment [14] | SH2 binding enrichment [15] | SH2 binding enrichment [16] | phosphorylation enrichment [1] | phosphorylation enrichment [2] | phosphorylation enrichment [3] | phosphorylation enrichment [4] | phosphorylation enrichment [5] | phosphorylation enrichment [6] | phosphorylation enrichment [7] | phosphorylation enrichment [8] | phosphorylation enrichment [9] | phosphorylation enrichment [10] | phosphorylation enrichment [11] | phosphorylation enrichment [12] | phosphorylation enrichment [13]
33 | YKTPTYPYLLP [PLD2_Y578] | 1.68 | 1.04 | 0.521 | 0.794 | 0.92 | 0.589 | 0.958 | 0.625 | 0.786 | 0.481 | 0.943 | 0.543 | 0.459 | 0.764 | 0.454 | 0.525
